Target: UPF3B (UniProt Q9BZI7)
Experiment: co-IP of IRE1α S724 mutants
Conditions: reference: wild type; sites S724

- fold change: stronger
Substance: IRE1α (inositol-requiring enzyme-1α) (from UniProt O75460) S724A
